This passage reports Kd results from PMC9847341 (Antibody Therapeutics, 2022).

The target of test [1] is human chitinase 3-like-1 (hChi3l1) with C-terminal Avitag and His tag (Homo sapiens, UniProt P36222). The test is described as follows: BLI. In general terms: BLI is a label-free optical method that tracks binding on a fibre tip over time.
In test [2] the target is mouse chitinase 3-like-1 (mChi3l1) with C-terminal Avitag and His tag (Mus musculus, UniProt Q61362). The experiment in a line: BLI.
mouse chitinase 3-like-1 (mChi3l1) with C-terminal Avitag and His tag, sequence (Q61362 30-389): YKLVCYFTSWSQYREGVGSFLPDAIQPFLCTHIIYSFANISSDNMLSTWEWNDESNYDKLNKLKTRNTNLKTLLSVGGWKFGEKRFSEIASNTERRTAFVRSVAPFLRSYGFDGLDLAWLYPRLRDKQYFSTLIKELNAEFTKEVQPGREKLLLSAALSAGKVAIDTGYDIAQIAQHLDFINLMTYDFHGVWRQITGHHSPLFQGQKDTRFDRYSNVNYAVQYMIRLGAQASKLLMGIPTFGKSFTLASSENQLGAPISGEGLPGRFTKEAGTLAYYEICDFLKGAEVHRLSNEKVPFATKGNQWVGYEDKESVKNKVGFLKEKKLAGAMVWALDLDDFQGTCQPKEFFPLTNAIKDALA

human chitinase 3-like-1 (hChi3l1) with C-terminal Avitag and His tag, sequence (P36222 22-383): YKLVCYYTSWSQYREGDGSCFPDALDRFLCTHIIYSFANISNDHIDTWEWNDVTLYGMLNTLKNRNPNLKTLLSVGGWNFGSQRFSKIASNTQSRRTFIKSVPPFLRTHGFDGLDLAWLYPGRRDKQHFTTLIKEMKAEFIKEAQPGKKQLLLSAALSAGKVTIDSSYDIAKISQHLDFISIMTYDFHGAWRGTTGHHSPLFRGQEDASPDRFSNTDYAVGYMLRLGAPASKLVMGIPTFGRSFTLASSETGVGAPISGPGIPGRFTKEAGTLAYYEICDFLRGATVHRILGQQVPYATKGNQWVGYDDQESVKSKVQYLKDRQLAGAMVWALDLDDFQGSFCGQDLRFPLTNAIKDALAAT

B1: humanized C59, second version (hC59): hC59-1 with the S67F reverse mutation in the kappa chain FR3 (antibody, V domains shown)
VH: EVQLVESGGGLVQPGGSLRLSCAASGFTISSDYYMCWVRQAPGKGLEWIGCIYIGSGTDTYYASWAKGRFTISRHNSKNTLYLQMNSLRAEDTAVYYCARDKGWSNAWGFYFQLWGQGTLVTVSS
VL: DIQMTQSPSSLSASVGDRVTITCQASQSIGKYLNWYQQKPGKAPKLLIYSSSSLASGVPSRFSGSGFGTDFTLTISSLQPEDFATYYCQQGYSYVDLENGFGGGTKVEI
As to B1, the Kd (as a rule, the constant that tells how readily two partners part at equilibrium) in test [1] was 9 nM; in test [2], 7 nM.
